From patent US20200338203A1 (Bicycle, published 2020) come the findings set out here.

Numbered stars: 1 amine (or outer) side, 2 acyl side, 3 side chain; on linkers, the order of the positions; unused ones are H or OH. Bridge positions count the residues as written; N and C are the ends. Square brackets hold non-standard residues; d marks the D form. Primed or numbered codes have the meaning given here. Ends that are not written are not given here. K(Fl)″ = lysine labelled with carboxyfluorescein; K(Fl) = Lys carrying 5(6)-carboxyfluorescein; TBMB = c1c(C[*:1])cc(C[*:3])cc1C[*:2]; Sar = CNCC(=O)O

T1: Human EphA1 (Human, UniProt P21709 26-547)
T1 construct: extracellular domain; also called EphA1 (Ecto), Human
T1 sequence (looked up): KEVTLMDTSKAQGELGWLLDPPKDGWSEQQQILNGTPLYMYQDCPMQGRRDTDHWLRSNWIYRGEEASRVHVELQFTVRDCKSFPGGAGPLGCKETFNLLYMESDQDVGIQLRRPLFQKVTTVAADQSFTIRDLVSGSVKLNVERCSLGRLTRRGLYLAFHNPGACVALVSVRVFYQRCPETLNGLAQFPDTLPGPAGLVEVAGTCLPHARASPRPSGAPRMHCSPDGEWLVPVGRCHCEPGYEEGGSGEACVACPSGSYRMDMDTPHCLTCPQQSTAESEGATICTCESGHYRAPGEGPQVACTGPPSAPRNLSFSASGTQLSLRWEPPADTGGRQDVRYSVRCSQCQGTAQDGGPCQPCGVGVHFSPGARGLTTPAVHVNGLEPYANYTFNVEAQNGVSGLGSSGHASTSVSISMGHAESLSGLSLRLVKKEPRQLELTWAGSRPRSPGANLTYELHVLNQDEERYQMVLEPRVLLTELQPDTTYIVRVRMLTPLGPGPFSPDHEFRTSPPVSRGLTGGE

T2: rat EphB1 (Rat, UniProt P09759 18-540)
T2 construct: extracellular domain; also called EphB1 (Ecto), Rat
T2 sequence (looked up): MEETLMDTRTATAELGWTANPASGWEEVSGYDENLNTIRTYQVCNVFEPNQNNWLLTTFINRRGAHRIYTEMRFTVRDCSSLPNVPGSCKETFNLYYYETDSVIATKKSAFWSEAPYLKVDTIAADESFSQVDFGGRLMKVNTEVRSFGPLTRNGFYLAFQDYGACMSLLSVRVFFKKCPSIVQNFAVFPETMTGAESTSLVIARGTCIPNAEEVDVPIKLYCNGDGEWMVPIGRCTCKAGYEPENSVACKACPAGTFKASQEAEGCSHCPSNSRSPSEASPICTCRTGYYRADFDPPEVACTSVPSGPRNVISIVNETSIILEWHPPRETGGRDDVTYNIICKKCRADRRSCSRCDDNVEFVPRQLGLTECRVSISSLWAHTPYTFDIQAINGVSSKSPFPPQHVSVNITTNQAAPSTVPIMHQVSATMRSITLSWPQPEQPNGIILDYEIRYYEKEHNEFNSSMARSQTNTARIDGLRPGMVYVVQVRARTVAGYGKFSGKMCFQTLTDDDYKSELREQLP

B1: Compound 111 (peptide)
peptide: [Sar][Sar]ACPWGPFWCPVNRPAC
modifications: linker 4-11-18 via TBMB
notes: bicyclic peptide
B2: Compound 101 (peptide)
peptide: ACPWGPFWCPVARPGC
modifications: N-terminal Sar2 before the entry; three Cys cyclised on TBMB
notes: bicyclic peptide
B3: Compound 105 (peptide)
peptide: [Sar][Sar]ACPWGPFWCPVNR[dA]GC
modifications: linker 4-11-18 via TBMB
notes: bicyclic peptide
B4: Compound 302 (peptide)
peptide: [Sar][Sar]ACPWGPFWCPVN[dA]PGC
modifications: linker 4-11-18 via TBMB
notes: bicyclic peptide
B5: Compound 1 (peptide)
peptide: ACMNDWLCSLGWTCA[Sar][Sar][Sar][Sar][Sar][Sar]-{K(Fl)}
modifications: linker 2-8-14 via TBMB
B6: Compound 66 (peptide)
peptide: ACPWGPFWCPVNRPGCA
modifications: N-terminal Fl-G-Sar5 before the entry; three Cys cyclised on TBMB
notes: bicyclic peptide, fluorescent
B7: Compound 12 (peptide)
peptide: ACPWGPAWCPVNRPGCA
modifications: N-terminal Fl-G-Sar5 before the entry (5(6)-carboxyfluorescein, Gly, five sarcosines); three Cys cyclised on TBMB
notes: bicyclic peptide, fluorescent
B8: Compound 23 (peptide)
peptide: ACLVNDDCFYMGLCA[Sar][Sar][Sar][Sar][Sar][Sar]-{K(Fl)″}
modifications: linker 2-8-14 via TBMB
notes: bicyclic peptide, fluorescent
B9: Compound 286 (peptide)
peptide: [Sar][Sar]ACAWGPFWCPVNRPGC
modifications: linker 4-11-18 via TBMB
notes: bicyclic peptide
B10: Compound 292 (peptide)
peptide: [Sar][Sar]ACPWGPFWCPANRPGC
modifications: linker 4-11-18 via TBMB
notes: bicyclic peptide
B11: Compound 293 (peptide)
peptide: [Sar][Sar]ACPWGPFWCPVNAPGC
modifications: linker 4-11-18 via TBMB
notes: bicyclic peptide
B12: Compound 297 (peptide)
peptide: [Sar][Sar]ACPWG[dA]FWCPVNRPGC
modifications: linker 4-11-18 via TBMB
notes: bicyclic peptide
B13: Compound 296 (peptide)
peptide: [Sar][Sar]ACPW[dA]PFWCPVNRPGC
modifications: linker 4-11-18 via TBMB
notes: bicyclic peptide

T4 sequence (Q03145 26-538): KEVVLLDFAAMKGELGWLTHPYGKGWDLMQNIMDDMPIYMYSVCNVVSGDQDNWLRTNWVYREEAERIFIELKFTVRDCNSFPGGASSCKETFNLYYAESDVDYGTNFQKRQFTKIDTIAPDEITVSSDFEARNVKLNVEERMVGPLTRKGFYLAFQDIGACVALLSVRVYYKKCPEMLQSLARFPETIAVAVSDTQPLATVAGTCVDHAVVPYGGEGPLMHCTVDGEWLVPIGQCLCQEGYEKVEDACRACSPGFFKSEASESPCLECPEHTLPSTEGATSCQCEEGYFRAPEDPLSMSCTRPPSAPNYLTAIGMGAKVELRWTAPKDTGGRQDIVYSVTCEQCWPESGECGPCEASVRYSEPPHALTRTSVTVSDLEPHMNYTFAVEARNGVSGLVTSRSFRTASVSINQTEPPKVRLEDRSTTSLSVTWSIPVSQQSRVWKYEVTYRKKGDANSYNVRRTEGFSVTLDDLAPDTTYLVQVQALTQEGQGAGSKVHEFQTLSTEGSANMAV

The target of the first assay is T3, Human EphA2 (Human, UniProt P29317 24-537).
T3 construct: extracellular domain; also called EphA2 (Ecto), Human
T3 sequence (P29317 24-537): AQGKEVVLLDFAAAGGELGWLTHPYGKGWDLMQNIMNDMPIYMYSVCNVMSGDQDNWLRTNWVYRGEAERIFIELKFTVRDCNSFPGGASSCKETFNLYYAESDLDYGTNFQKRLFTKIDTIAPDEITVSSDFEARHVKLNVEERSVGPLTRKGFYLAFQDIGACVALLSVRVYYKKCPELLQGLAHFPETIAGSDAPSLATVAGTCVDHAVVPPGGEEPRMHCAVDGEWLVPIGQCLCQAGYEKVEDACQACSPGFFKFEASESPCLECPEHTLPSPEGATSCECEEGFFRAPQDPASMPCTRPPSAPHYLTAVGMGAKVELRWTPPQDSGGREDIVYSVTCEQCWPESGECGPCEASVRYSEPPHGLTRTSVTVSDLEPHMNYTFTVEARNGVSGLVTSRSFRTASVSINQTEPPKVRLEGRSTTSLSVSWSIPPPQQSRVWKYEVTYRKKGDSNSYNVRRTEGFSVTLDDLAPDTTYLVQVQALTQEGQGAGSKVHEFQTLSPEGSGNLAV
Briefly: FP competition; competitor: fluorescent Compound 18. On the procedure:
(§1) Peptides without a fluorescent tag were tested in competition with a peptide with a fluorescent tag and a known Kd (Table 2). Peptides were diluted to an appropriate concentration in assay buffer as described in the direct binding assay with a maximum of 5% DMSO, then serially diluted 1 in 2. Five μL of diluted peptide was added to the plate followed by 10 μL of human or mouse EphA2 (Table 1) at a fixed concentration which was dependent on the fluorescent peptide used (Table 2), then 10 μL fluorescent peptide added. Measurements were conducted as for the direct binding assay, however the gain was determined prior to the first measurement.
Consider B1, for which the Ki (in general, the dissociation constant of the complex between target and ligand, obtained from inhibition or displacement) amounted to 108 nM. As for B2, the Ki is 293 nM. In the case of B3, the Ki is 677 nM.

For the molecule B4, the Ki was greater than 1000 nM.

Another assay addresses T1, Human EphA1. Briefly: FP direct binding, selectivity. On the procedure:
(§2) The gain used for analysis was determined for each tracer at the end of the 60 minutes where there was no protein in the well. Data was analysed using Systat Sigmaplot version 12.0. mP values were fit to a user defined quadratic equation to generate a Kd value: f=ymin+(ymax−ymin)/Lig*((x+Lig+Kd)/2-sqrt((((x+Lig+Kd)/2)\hat{ }2)−(Lig*x))). “Lig” was a defined value of the concentration of tracer used.
B5: the Kd – broadly, the concentration at which binding is half-saturated – is 1640 nM. The molecule B6 came in with a Kd of 1180 nM. The Kd values of the last two molecules are within 1.5-fold of each other.

The next assay has as its target T4, mouse EphA2 (Mouse, UniProt Q03145 26-538).
T4 construct: extracellular domain; C-terminal polyHis; also called EphA2 (Ecto), Mouse
Briefly: FP direct binding, selectivity. On the procedure: as §2
The molecule B7 came in with a Kd of 55.5 nM. The molecule B8 came in with a Kd of 386 nM. This Kd lies about 7-fold higher than the previous one.

A further assay has as its target T2, rat EphB1. Briefly: FP direct binding, selectivity. On the procedure: as §2
Molecule B6 returned a Kd of 2270 nM. This lies in the single-digit micromolar range.

A further assay has as its target T3, Human EphA2. Kind of assay: FP competition; competitor: fluorescent Compound 66. How it is done:
as §1
Turning to B9, the Ki is 886 nM. Consider B1, for which the Ki was 238 nM. Still for that read-out and setting: next, B10: 954 nM. As for B2, the Ki worked out at 265 nM.

For the molecule B11, the Ki came out at 711 nM.

B3: the Ki amounted to 471 nM.

With B12, the Ki was found to be 1500 nM. In the case of B4, the Ki was 1410 nM. As to B13, the Ki amounted to 1000 nM.
